In paper PMC6891578, “An extracellular domain of the EsaA membrane component of the type VIIb secretion system: expression, purification and crystallization” (Acta Crystallographica. Section F, Structural Biology …, 2019):

Molecular target: the molecule itself
Assay: SEC-MALS; Superdex 200 10/300 GL, 150 mM NaCl, 20 mM Tris–HCl pH 8.0, 3 mM DTT; 100 µl of EsaAex_2 at 4 mg/ml loaded, 0.5 ml/min

B1: EsaAex_2 (extracellular domain of EsaA, amino acids 275–689) (domain or fragment)
chain: MSQKDSVELDNYINALKQMDSQIDQQSSMQDTGKEEYKQTVKENLDKLREIIQSQESPFSKGMIEDYRKQLTESLQDELANNKDLQDALNSIKMNNAQFAENLEKQLHDDIVKEPDTDTTFIYNMSKQDFIAAGLNEGEANKYEAIVKEAKRYKNEYNLKKPLAEHINLTDYDNQVAQDTSSLINDGVKVQRTETIKSNDINQLTVATDPHFNFEGDIKINGKKYDIKDQSVQLDTSNKEYKVEVNGVAKLKKDAEKDFLKDKTMHLQLLFGQANRQDEPNDKKATSVVDVTLNHNLDGRLSKDALSQQLSALSRFDAHYKMYTDTKGREDKPFDNKRLIDMMVDQVINDMESFKDDKVAVLHQIDSMEENSDKLIDDILNNKKNTTKNKEDISKLIDQLENVKKTFAEEPQEPK
notes: EsaA, membrane component of the type VIIb secretion system, S. aureus USA300, amino acids 275–689 of the 1009-residue protein; The His tag was cleaved with TEV protease; also called purified extracellular domain; source: E. coli BL21 Star, purified (HisTrap, TEV cleavage, Ni-NTA flowthrough, SEC); not shown: His6, N-terminal, cleaved
stoichiometry N: 2
